Measured values reported in article PMC4024244 (Human genetics, 2013).

T1: muscle-specific receptor tyrosine kinase (MuSK), wild type, expressed in HEK-293 (human, UniProt O15146 24-869)
T1 sequence (looked up): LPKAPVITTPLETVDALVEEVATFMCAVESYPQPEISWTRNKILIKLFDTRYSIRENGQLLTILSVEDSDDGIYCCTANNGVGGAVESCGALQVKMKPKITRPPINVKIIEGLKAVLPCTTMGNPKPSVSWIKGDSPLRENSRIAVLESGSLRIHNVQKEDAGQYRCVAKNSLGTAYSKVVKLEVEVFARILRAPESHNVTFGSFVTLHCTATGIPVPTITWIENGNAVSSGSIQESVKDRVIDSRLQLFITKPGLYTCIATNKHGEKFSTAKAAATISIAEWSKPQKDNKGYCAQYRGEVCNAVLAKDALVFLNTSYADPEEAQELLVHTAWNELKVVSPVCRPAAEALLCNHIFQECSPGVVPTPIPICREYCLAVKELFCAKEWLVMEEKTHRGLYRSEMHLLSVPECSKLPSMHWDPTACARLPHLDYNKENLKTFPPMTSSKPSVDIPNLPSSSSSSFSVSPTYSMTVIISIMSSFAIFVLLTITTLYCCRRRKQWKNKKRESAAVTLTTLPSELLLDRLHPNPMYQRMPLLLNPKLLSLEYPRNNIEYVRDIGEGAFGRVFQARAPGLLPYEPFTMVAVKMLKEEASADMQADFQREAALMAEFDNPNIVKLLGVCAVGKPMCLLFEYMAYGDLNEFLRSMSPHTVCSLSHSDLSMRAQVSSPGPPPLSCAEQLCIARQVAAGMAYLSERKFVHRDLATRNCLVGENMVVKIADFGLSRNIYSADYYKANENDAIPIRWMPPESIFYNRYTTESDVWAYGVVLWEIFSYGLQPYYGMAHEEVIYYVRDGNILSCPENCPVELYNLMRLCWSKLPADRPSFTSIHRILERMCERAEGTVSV

T2: MuSK protein (Millipore) (UniProt O15146 24-495)
T2 chain: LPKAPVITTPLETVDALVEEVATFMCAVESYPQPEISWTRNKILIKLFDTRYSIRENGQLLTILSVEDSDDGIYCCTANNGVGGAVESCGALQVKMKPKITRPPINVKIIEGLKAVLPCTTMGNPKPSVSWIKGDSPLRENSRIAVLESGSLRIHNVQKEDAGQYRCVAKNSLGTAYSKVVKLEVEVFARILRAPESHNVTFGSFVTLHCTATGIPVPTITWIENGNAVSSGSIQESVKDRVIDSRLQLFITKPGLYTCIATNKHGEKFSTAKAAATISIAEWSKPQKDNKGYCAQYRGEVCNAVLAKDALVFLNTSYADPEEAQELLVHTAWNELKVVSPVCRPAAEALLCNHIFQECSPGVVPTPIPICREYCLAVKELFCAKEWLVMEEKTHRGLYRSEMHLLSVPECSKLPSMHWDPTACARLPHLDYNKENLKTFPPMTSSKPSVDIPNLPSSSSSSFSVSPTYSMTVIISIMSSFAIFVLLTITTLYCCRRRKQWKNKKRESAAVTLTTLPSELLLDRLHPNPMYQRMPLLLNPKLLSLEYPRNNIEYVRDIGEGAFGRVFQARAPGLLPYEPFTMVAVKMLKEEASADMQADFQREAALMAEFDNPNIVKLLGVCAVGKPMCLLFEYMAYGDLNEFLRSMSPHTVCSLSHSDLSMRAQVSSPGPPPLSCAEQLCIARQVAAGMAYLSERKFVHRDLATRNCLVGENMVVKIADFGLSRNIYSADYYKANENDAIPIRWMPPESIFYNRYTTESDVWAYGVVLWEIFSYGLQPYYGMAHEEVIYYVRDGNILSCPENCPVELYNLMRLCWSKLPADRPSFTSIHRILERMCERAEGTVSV


target: T1, muscle-specific receptor tyrosine …; test: co-IP

Row | Binder | percent reduction of binding to MuSK against WT ColQ
1 | ColQ p.Asp370Asn (natural protein, human, UniProt Q9Y215-1 23-455, looked up) QPTFINSVLPISAALPSLDQKKRGGHKACCLLTPPPPPLFPPPFFRGGRSPLLSPDMKNLMLELETSQSPCMQGSLGSPGPPGPQGPPGLPGKTGPKGEKGELGRPGRKGRPGPPGVPGMPGPIGWPGPEGPRGEKGDLGMMGLPGSRGPMGSKGYPGSRGEKGSRGEKGDLGPKGEKGFPGFPGMLGQKGEMGPKGEPGIAGHRGPTGRPGKRGKQGQKGDSGVMGPPGKPGPSGQPGRPGPPGPPPAGQLIMGPKGERGFPGPPGRCLCGPTMNVNNPSYGESVYGPSSPRVPVIFVVNNQEELERLNTQNAIAFRRDQRSLYFKDSLGWLPIQLTPFYPVDYTANQHGTCGDGLLQPGEECDDGNSDVGDDCIRCHRAYCGDGHRHEGVEDCDGSDFGYLTCETYLPGSYGDLQCTQYCYIDSTPCRYFT | 1.5%
2 | ColQ p.Cys397Ser (natural protein, human, UniProt Q9Y215-1 23-455, looked up) QPTFINSVLPISAALPSLDQKKRGGHKACCLLTPPPPPLFPPPFFRGGRSPLLSPDMKNLMLELETSQSPCMQGSLGSPGPPGPQGPPGLPGKTGPKGEKGELGRPGRKGRPGPPGVPGMPGPIGWPGPEGPRGEKGDLGMMGLPGSRGPMGSKGYPGSRGEKGSRGEKGDLGPKGEKGFPGFPGMLGQKGEMGPKGEPGIAGHRGPTGRPGKRGKQGQKGDSGVMGPPGKPGPSGQPGRPGPPGPPPAGQLIMGPKGERGFPGPPGRCLCGPTMNVNNPSYGESVYGPSSPRVPVIFVVNNQEELERLNTQNAIAFRRDQRSLYFKDSLGWLPIQLTPFYPVDYTADQHGTCGDGLLQPGEECDDGNSDVGDDSIRCHRAYCGDGHRHEGVEDCDGSDFGYLTCETYLPGSYGDLQCTQYCYIDSTPCRYFT | 6.7%
3 | ColQ p.Cys400Tyr (natural protein, human, UniProt Q9Y215-1 23-455, looked up) QPTFINSVLPISAALPSLDQKKRGGHKACCLLTPPPPPLFPPPFFRGGRSPLLSPDMKNLMLELETSQSPCMQGSLGSPGPPGPQGPPGLPGKTGPKGEKGELGRPGRKGRPGPPGVPGMPGPIGWPGPEGPRGEKGDLGMMGLPGSRGPMGSKGYPGSRGEKGSRGEKGDLGPKGEKGFPGFPGMLGQKGEMGPKGEPGIAGHRGPTGRPGKRGKQGQKGDSGVMGPPGKPGPSGQPGRPGPPGPPPAGQLIMGPKGERGFPGPPGRCLCGPTMNVNNPSYGESVYGPSSPRVPVIFVVNNQEELERLNTQNAIAFRRDQRSLYFKDSLGWLPIQLTPFYPVDYTADQHGTCGDGLLQPGEECDDGNSDVGDDCIRYHRAYCGDGHRHEGVEDCDGSDFGYLTCETYLPGSYGDLQCTQYCYIDSTPCRYFT | 5%
4 | ColQ p.Gly423Val (natural protein, human, UniProt Q9Y215-1 23-455, looked up) QPTFINSVLPISAALPSLDQKKRGGHKACCLLTPPPPPLFPPPFFRGGRSPLLSPDMKNLMLELETSQSPCMQGSLGSPGPPGPQGPPGLPGKTGPKGEKGELGRPGRKGRPGPPGVPGMPGPIGWPGPEGPRGEKGDLGMMGLPGSRGPMGSKGYPGSRGEKGSRGEKGDLGPKGEKGFPGFPGMLGQKGEMGPKGEPGIAGHRGPTGRPGKRGKQGQKGDSGVMGPPGKPGPSGQPGRPGPPGPPPAGQLIMGPKGERGFPGPPGRCLCGPTMNVNNPSYGESVYGPSSPRVPVIFVVNNQEELERLNTQNAIAFRRDQRSLYFKDSLGWLPIQLTPFYPVDYTADQHGTCGDGLLQPGEECDDGNSDVGDDCIRCHRAYCGDGHRHEGVEDCDGSDFVYLTCETYLPGSYGDLQCTQYCYIDSTPCRYFT | 16.8%
5 | ColQ p.Tyr404Asp (natural protein, human, UniProt Q9Y215-1 23-455, looked up) QPTFINSVLPISAALPSLDQKKRGGHKACCLLTPPPPPLFPPPFFRGGRSPLLSPDMKNLMLELETSQSPCMQGSLGSPGPPGPQGPPGLPGKTGPKGEKGELGRPGRKGRPGPPGVPGMPGPIGWPGPEGPRGEKGDLGMMGLPGSRGPMGSKGYPGSRGEKGSRGEKGDLGPKGEKGFPGFPGMLGQKGEMGPKGEPGIAGHRGPTGRPGKRGKQGQKGDSGVMGPPGKPGPSGQPGRPGPPGPPPAGQLIMGPKGERGFPGPPGRCLCGPTMNVNNPSYGESVYGPSSPRVPVIFVVNNQEELERLNTQNAIAFRRDQRSLYFKDSLGWLPIQLTPFYPVDYTADQHGTCGDGLLQPGEECDDGNSDVGDDCIRCHRADCGDGHRHEGVEDCDGSDFGYLTCETYLPGSYGDLQCTQYCYIDSTPCRYFT | 7.4%

Target: T2, MuSK protein (Millipore)
Test: plate overlay binding assay with

Row | Binder | other
6 | purified A12 asymmetric form of AChE with ColQ p.Asp370Asn (complex, human) chain 1: QPTFINSVLPISAALPSLDQKKRGGHKACCLLTPPPPPLFPPPFFRGGRSPLLSPDMKNLMLELETSQSPCMQGSLGSPGPPGPQGPPGLPGKTGPKGEKGELGRPGRKGRPGPPGVPGMPGPIGWPGPEGPRGEKGDLGMMGLPGSRGPMGSKGYPGSRGEKGSRGEKGDLGPKGEKGFPGFPGMLGQKGEMGPKGEPGIAGHRGPTGRPGKRGKQGQKGDSGVMGPPGKPGPSGQPGRPGPPGPPPAGQLIMGPKGERGFPGPPGRCLCGPTMNVNNPSYGESVYGPSSPRVPVIFVVNNQEELERLNTQNAIAFRRDQRSLYFKDSLGWLPIQLTPFYPVDYTANQHGTCGDGLLQPGEECDDGNSDVGDDCIRCHRAYCGDGHRHEGVEDCDGSDFGYLTCETYLPGSYGDLQCTQYCYIDSTPCRYFT chain 2: EGREDAELLVTVRGGRLRGIRLKTPGGPVSAFLGIPFAEPPMGPRRFLPPEPKQPWSGVVDATTFQSVCYQYVDTLYPGFEGTEMWNPNRELSEDCLYLNVWTPYPRPTSPTPVLVWIYGGGFYSGASSLDVYDGRFLVQAERTVLVSMNYRVGAFGFLALPGSREAPGNVGLLDQRLALQWVQENVAAFGGDPTSVTLFGESAGAASVGMHLLSPPSRGLFHRAVLQSGAPNGPWATVGMGEARRRATQLAHLVGCPPGGTGGNDTELVACLRTRPAQVLVNHEWHVLPQESVFRFSFVPVVDGDFLSDTPEALINAGDFHGLQVLVGVVKDEGSYFLVYGAPGFSKDNESLISRAEFLAGVRVGVPQVSDLAAEAVVLHYTDWLHPEDPARLREALSDVVGDHNVVCPVAQLAGRLAAQGARVYAYVFEHRASTLSWPLWMGVPHGYEIEFIFGIPLDPSRNYTAEEKIFAQRLMRYWANFARTGDPNEPRDPKAPQWPPYTAGAQQYVSLDLRPLEVRRGLRAQACAFWNRFLPKLLSATDTLDEAERQWKAEFHRWSSYMVHWKNQFDHYSKQDRCSDL | 15%
7 | purified A12 asymmetric form of AChE with ColQ p.Cys397Ser (complex, human) chain 1: QPTFINSVLPISAALPSLDQKKRGGHKACCLLTPPPPPLFPPPFFRGGRSPLLSPDMKNLMLELETSQSPCMQGSLGSPGPPGPQGPPGLPGKTGPKGEKGELGRPGRKGRPGPPGVPGMPGPIGWPGPEGPRGEKGDLGMMGLPGSRGPMGSKGYPGSRGEKGSRGEKGDLGPKGEKGFPGFPGMLGQKGEMGPKGEPGIAGHRGPTGRPGKRGKQGQKGDSGVMGPPGKPGPSGQPGRPGPPGPPPAGQLIMGPKGERGFPGPPGRCLCGPTMNVNNPSYGESVYGPSSPRVPVIFVVNNQEELERLNTQNAIAFRRDQRSLYFKDSLGWLPIQLTPFYPVDYTADQHGTCGDGLLQPGEECDDGNSDVGDDSIRCHRAYCGDGHRHEGVEDCDGSDFGYLTCETYLPGSYGDLQCTQYCYIDSTPCRYFT chain 2: EGREDAELLVTVRGGRLRGIRLKTPGGPVSAFLGIPFAEPPMGPRRFLPPEPKQPWSGVVDATTFQSVCYQYVDTLYPGFEGTEMWNPNRELSEDCLYLNVWTPYPRPTSPTPVLVWIYGGGFYSGASSLDVYDGRFLVQAERTVLVSMNYRVGAFGFLALPGSREAPGNVGLLDQRLALQWVQENVAAFGGDPTSVTLFGESAGAASVGMHLLSPPSRGLFHRAVLQSGAPNGPWATVGMGEARRRATQLAHLVGCPPGGTGGNDTELVACLRTRPAQVLVNHEWHVLPQESVFRFSFVPVVDGDFLSDTPEALINAGDFHGLQVLVGVVKDEGSYFLVYGAPGFSKDNESLISRAEFLAGVRVGVPQVSDLAAEAVVLHYTDWLHPEDPARLREALSDVVGDHNVVCPVAQLAGRLAAQGARVYAYVFEHRASTLSWPLWMGVPHGYEIEFIFGIPLDPSRNYTAEEKIFAQRLMRYWANFARTGDPNEPRDPKAPQWPPYTAGAQQYVSLDLRPLEVRRGLRAQACAFWNRFLPKLLSATDTLDEAERQWKAEFHRWSSYMVHWKNQFDHYSKQDRCSDL | 18%
